Publication doi:10.1101/524447

target: Integrin β3 cytoplasmic tail peptide (human (from the printed UniProt ID)); assay: SPR

Substance	Kd
Syk C-terminal SH2 domain with the IA segment (IA-C-SH2) (domain or fragment)	25 µM
Syk N-terminal SH2 domain alone (N-SH2) (domain or fragment)	130 µM
Syk tandem SH2 (tSH2) fragment, amino acids 9-264 (from UniProt P43405 9-264) (domain or fragment)	3 µM
Syk N-terminal SH2 domain with the IA segment (N-SH2+IA) (domain or fragment)	8 µM
